Target: E. coli RecQ helicase, wild type (E. coli, UniProt P15043 1-609)
Experiment: fluorescence polarisation

E. coli RecQ helicase, wild type, sequence (P15043 whole entry): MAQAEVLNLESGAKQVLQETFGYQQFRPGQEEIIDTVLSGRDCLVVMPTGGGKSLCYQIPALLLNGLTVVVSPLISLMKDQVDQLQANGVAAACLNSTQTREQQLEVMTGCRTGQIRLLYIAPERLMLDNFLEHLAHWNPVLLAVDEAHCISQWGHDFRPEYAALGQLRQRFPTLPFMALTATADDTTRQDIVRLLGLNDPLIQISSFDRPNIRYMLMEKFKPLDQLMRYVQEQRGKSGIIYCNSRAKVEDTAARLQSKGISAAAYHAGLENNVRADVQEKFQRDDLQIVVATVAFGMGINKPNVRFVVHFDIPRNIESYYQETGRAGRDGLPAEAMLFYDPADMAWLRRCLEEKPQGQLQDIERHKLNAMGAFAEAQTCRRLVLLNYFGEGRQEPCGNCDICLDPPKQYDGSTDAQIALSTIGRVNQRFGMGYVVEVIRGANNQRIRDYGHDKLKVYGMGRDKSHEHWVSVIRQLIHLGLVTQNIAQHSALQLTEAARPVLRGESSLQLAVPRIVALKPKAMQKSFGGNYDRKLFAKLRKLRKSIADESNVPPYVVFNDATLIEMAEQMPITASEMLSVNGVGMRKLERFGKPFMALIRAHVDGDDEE

## MDFDDDIPF (fluorescein on the N-terminus) [N-terminally fluorescein-labeled SSB C-terminal peptide (Flu-MDFDDDIPF)]
  binding result: binds

From publication doi:10.1101/797431 (bioRxiv, 2019)
